In paper PMC6177200, “EpCAM ectodomain EpEX is a ligand of EGFR that counteracts EGF-mediated epithelial-mesenchymal transition through modulation of phospho-ERK1/2 in head and neck cancers” (PLoS Biology, 2018):
Where “and” joins values, the source holds several entries; their conditions need not be identical. Equal values may be shown once.

Legend:
[1] = biological target: T1, EpEX-Fc (extracellular domain of EpCAM fused to the constant region of human immunoglobulin 1) (human), P16422; assay: native gel or EMSA; purified EpEX-Fc in native versus reducing immunoblot experiments with specific antibodies; conditions: remark: other sources report otherwise
T1 chain: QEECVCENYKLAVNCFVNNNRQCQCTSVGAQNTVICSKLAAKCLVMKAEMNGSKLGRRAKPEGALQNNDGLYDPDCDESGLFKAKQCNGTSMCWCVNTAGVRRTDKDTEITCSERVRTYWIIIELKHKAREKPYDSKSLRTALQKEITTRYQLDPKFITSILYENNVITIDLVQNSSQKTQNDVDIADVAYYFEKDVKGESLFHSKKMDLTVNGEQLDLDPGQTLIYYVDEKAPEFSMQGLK

[2] = biological target: T2, EpEX (extracellular domain of EpCAM, aa 24-265), recombinant (human), P16422; assay: cross-linking; BS3 cross-linker (3.6 μg, 30 min, 37 °C); EpEX and EGF 250 pmol, EGFRex 50 pmol in 9 μl of 20 mM HEPES pH 8.0, 100 mM NaCl, 1 hr at 37 °C before; EGF added where indicated; conditions: remark: other sources report otherwise
T2 chain: T1 chain

[3] = biological target: epidermal growth factor receptor (EGFR), endogenous full-length (human (endogenous in FaDu, Cal27, HCT8), UniProt P00533 25-1210); assay: cell-based or functional assay
[4] = biological target: T3, EGFRex (extracellular domain of EGFR, aa 25-642) (UniProt P00533 25-642); assay: cross-linking; BS3 cross-linker (3.6 μg, 30 min, 37 °C); EpEX and EGF 250 pmol, EGFRex 50 pmol in 9 μl of 20 mM HEPES pH 8.0, 100 mM NaCl, 1 hr at 37 °C before; EGF added where indicated; conditions: both partners purified
T3 construct: extracellular domain of epidermal growth factor receptor, aa 25-642; source: expressed and purified as reported [118]

B1: EpEX-Fc (extracellular domain of EpCAM fused to the constant region of human immunoglobulin 1), P16422 24-265 (Fc fusion)
chain: T1 chain
modifications: here or on the partner: N-glycosylated; N-glycosylated
- stoichiometry N [1]: 2 and 3

B2: EpEX (extracellular domain of EpCAM, aa 24-265), recombinant, P16422 24-265 (domain or fragment)
chain: T1 chain
- stoichiometry N [2]: 2

B3: EpEX-Fc (extracellular domain of EpCAM fused to the constant region of human immunoglobulin 1) (Fc fusion, UniProt P16422 24-265, looked up)
chain: T1 chain
modifications: N-glycosylated
- increase in cell numbers of serum-starved FaDu cells after 72 hr with high-dose EpEX (10 nM); blocked by Cetuximab [3]: 1.5 fold
- increase in cell numbers of serum-starved Kyse30 cells after 72 hr with EpEX-Fc (1 and 10 nM; low dose without significant effect); blocked by Cetuximab [3]: 2 fold
- pERK1/2 by immunofluorescence in cells treated for 30 min with EpEX-Fc (10 nM) compared to EGF (9 nM) [3]: 3 fold

B4: EpEX (extracellular domain of EpCAM, aa 24-265), recombinant (domain or fragment, human, UniProt P16422 24-265, looked up)
chain: T1 chain
notes: extracellular domain of EpCAM, aa 24-265; also called purified recombinant EpEX; source: Sf9 insect cells, purified as described [47]
- stoichiometry N [4]: 1 EpEX per EGFRex and 2 EpEX per EGFRex
